Test results reported in article PMC3808375, “Reduction of Decoy Receptor 3 Enhances TRAIL-Mediated Apoptosis in Pancreatic Cancer” (PLoS ONE, 2013).
Read-outs that look alike come from different tables or passages of the source.

Columns and labels:
[1] = target: recombinant human DcR3 (decoy receptor 3) (human) (UniProt O95407); experiment: SPR; Biacore 3000; DcR3 amine-coupled to a CM5 chip; TRAIL 1-2048 nM or LIGHT 1-512 nM flowed at 20 µl/minute; HBS-EP buffer (10 mM HEPES pH 7.4, 150 mM NaCl, 3.4 mM EDTA, 0.005% Surfactant P20); 1:1 binding model, global analysis
[2] = target: recombinant human DcR3 (decoy receptor 3) (human) (UniProt O95407); experiment: as above; remark: listed apart in the source

Chain of recombinant human DcR3 (decoy receptor 3) (human) (O95407 30-300): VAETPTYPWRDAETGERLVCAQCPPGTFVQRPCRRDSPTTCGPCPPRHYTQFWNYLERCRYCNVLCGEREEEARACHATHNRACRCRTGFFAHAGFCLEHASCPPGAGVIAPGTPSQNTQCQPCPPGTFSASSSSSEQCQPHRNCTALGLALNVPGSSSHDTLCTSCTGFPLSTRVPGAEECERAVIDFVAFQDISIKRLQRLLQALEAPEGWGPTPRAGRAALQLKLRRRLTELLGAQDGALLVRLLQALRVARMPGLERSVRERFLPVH

Kd [1]: 52.8 nM
koff [1]: 0.00104 s⁻¹
kon [1]: 19400 M⁻¹ s⁻¹
kon [2]: 19700 M⁻¹ s⁻¹
Substance: recombinant human TRAIL (TNF-related apoptosis-inducing ligand) (from UniProt P50591 1-281)
